Numbering of substitutions follows the chain as printed.
T1: I-SceI wild type (K86/G100) (Saccharomyces cerevisiae, UniProt P03882 1-235)
T1 sequence: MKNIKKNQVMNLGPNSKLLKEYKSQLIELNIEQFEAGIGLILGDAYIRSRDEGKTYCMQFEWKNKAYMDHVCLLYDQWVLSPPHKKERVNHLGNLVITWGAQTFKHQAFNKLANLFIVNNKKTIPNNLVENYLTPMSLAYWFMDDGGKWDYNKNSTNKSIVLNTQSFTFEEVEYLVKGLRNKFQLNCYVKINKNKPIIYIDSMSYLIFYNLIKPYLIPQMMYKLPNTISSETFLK

T2: I-SceI G100S (Saccharomyces cerevisiae, UniProt P03882 1-235, G100S)
T2 sequence: T1 sequence with G100S

T3: I-SceI K86R/G100T (Saccharomyces cerevisiae, UniProt P03882 1-235, K86R;G100T)
T3 sequence: T1 sequence with K86R, G100T

T4: I-SceI G100T (Saccharomyces cerevisiae, UniProt P03882 1-235, G100T)
T4 sequence: T1 sequence with G100T

T5: I-SceI G100V (Saccharomyces cerevisiae, UniProt P03882 1-235, G100V)
T5 sequence: T1 sequence with G100V

T6: I-SceI G100C (Saccharomyces cerevisiae, UniProt P03882 1-235, G100C)
T6 sequence: T1 sequence with G100C

T7: I-SceI K86R/G100C (Saccharomyces cerevisiae, UniProt P03882 1-235, K86R;G100C)
T7 sequence: T1 sequence with K86R, G100C

T8: I-SceI K86R/G100S (Saccharomyces cerevisiae, UniProt P03882 1-235, K86R;G100S)
T8 sequence: T1 sequence with K86R, G100S

T9: I-SceI K86R (Saccharomyces cerevisiae, UniProt P03882 1-235, K86R)
T9 sequence: T1 sequence with K86R

B1: A/T+4 (WT) I-SceI target, filter binding duplex (dsDNA)
DNA 1: AACGAATAAAAGTTACGCTAGGGATAACAGGGTAATATAGCGAAAGAGTAGATATT
DNA 2: CAATATCTACTCTTTCGCTATATTACCCTGTTATCCCTAGCGTAACTTT
B2: C/G+4 I-SceI target, filter binding duplex (dsDNA)
DNA 1: B1 DNA 1 with A29C
DNA 2: B1 DNA 2 with T29G

Assays:
Experiment in all cases: filter binding
[1] = target: T1, I-SceI wild type (K86/G100)
[2] = target: T2, I-SceI G100S
[3] = target: T3, I-SceI K86R/G100T
[4] = target: T4, I-SceI G100T
[5] = target: T5, I-SceI G100V
[6] = target: T6, I-SceI G100C
[7] = target: T7, I-SceI K86R/G100C
[8] = target: T8, I-SceI K86R/G100S
[9] = target: T9, I-SceI K86R

| Binder | Kd [1] | Kd [2] | Kd [3] | Kd [4] | Kd [5] | Kd [6] | Kd [7] | Kd [8] | Kd [9] |
| --- | --- | --- | --- | --- | --- | --- | --- | --- | --- |
| B1 | 9 ± 3 nM | 150 ± 26 nM | 96 ± 16 nM | 39 ± 13 nM | 240 ± 51 nM | 110 ± 30 nM | 74 ± 12 nM | 83 ± 27 nM | 35 ± 5 nM |
| B2 | 20 ± 4.6 nM | 32 ± 10 nM | 8.2 ± 0.86 nM | 10 ± 1.5 nM | 230 ± 27 nM | 34 ± 8.8 nM | 7.5 ± 2.3 nM | 23 ± 4.3 nM | 39 ± 10 nM |

Reference: article PMC3019082
